Target: H3(1-282)-strep tag Ⅱ-NGL (monkeypox virus (MPXV))
Test: BLI; […]; PBS; 100 s association, 120 s dissociation; global fit
Settings: both partners purified

B1: AI-Poxblock723-strep tag Ⅱ-His8 (designed binder)
chain: MGLKKLQELKKKANELGKKAKEALDKGDFEKAKEYIKKGAEATKEYGELSGNKAAIEDGEKAEEVAEEIVKIAKEEKAKERSGGGGSGGGGS
notes: source: E. coli BL21(DE3), pET30a, purified (STarm Streptactin), exchanged into PBS
B1 showed a Kd of 9 µM.

— article doi:10.1101/2024.06.26.600898 (bioRxiv, 2024)
